assay: yeast display, Sf9 membrane polyspecificity reagent, FACS + sequencing; frameworks hold sequencing errors
In short: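 Nanobodies from a synthetic yeast display library (Saccharomyces cerevisiae BJ5465), induced 36–48 hours with galactose, were stained 1 hour at 4 °C with 10% biotinylated, detergent-solubilized Sf9 membrane reagent, enriched on streptavidin microbeads, then FACS-sorted. Anti-HA (expression) and streptavidin (reagent binding) fluorescence set low and high (top ~1%) gates. Polyreactivity labels come from the gate of origin. Genes were colony-PCR amplified, MiSeq 2 × 250 sequenced and filtered by CDR length.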

Row | Sequence | polyreactivity (PSR sort gate)
1 | QVQLVESGGGLVQAGGSLRLSCAASGSTLQDNAMGWYRQAPGKERELVAAITTGSTTYADSVKGRFTISRDNAKNTVYLQMNSLKPEDTAVYYCNARVDWGWPGYEYDYWGQGTQVTVSS | low polyreactivity
2 | QVQLVESGGGLVQAGGSLRLSCAASGSTLQGYAMGWYRQAPGKERELVAAISRSGGSTYYADSVKGRFTISRDNAKNTVYLQMNSLKPEDTAVYYCNRVAGGRRKGPWSYQYDYWGQGPQVTVSS | high polyreactivity
3 | QVQLVESGGGLVQAGGSLRLSCAASGSTLRAYAMGWYRQAPGKERELVAGITSGGRTNYADSVKGRFTISRDNAKNTVYLQMNSLKPEDTAVYYCATDRFSHYYFLYDYWGQGTQVTVSS | low polyreactivity
4 | QVQLVESGGGLVQAGGSLRLSCAASGSTLRAYAMGWYRQAPGKERELVATITRGARTNYADSVKGRFTISRDNAKNTVYLQMNSLKPEDTAVYYCAARSYGSQLSRQVYYWGQGTQVTVSS | high polyreactivity
5 | QVQLVESGGGLVQAGGSLRLSCAASGSTLRFYAMGWYRPAPGKERELVAAISSSGSSTYYADSVKGRFTISRDNAKNTVYLQLNSLKPEDTAVYYCSGYGYWGQGTQVTVSS | high polyreactivity
6 | QVQLVESGGGLVQAGGSLRLSCAASGSTLRFYAMGWYRQAAGKERELVADITYRGGSTYYADSVKGRFTISRDNAKNTVYLQMNSLKPEDTAVDYCAKQRSYSSKFDYWGQGSQVTVSS | high polyreactivity
7 | QVQLVESGGGLVQAGGSLRLSCAASGSTLRRYAMGWYRQAPGKERELVAAISGTGSRTYYADSVNGRFTISRDNAKNTDYLQMNSLKPEDTAVYYCNASQYRLTENDYWGQGTQVNVSS | high polyreactivity
8 | QVQLVESGGGLVQAGGSLRLSCAASGSTLRTNAMGWYRQAPGKERELVAAISSSAGSTYYADSVKGRFTISRDNAKNTVYLQMNSLKQEDTAVYYCAKQPGSAYGYWGQGTQVTVSS | high polyreactivity
9 | QVQLVESGGGLVQAGGSLRLSCAASGSTLRVNAKGWYRQAPGKERELVAAISYRGGSTYYADSVKGRFTISRDNAKNTVYLQMNSLKPEDTAVYYCAAKQGATRGYYYWGQGTQVTVSS | high polyreactivity
10 | QVQLVESGGGLVQAGGSLRLSCAASGSTLRWYAMGWYRQAPGKERELVARISWTTGSTYYADSVKGRFTISRDNAKNTVYLQMNSLKPEDTAVYYCAKGKKSSRSGIYNYWGQGTQVTVSS | high polyreactivity
11 | QVQLVESGGGLVQAGGSLRLSCAASGSTLRWYTMGWYRQAPGKESELVATNSRGGTTNYADSVKGRFTISRDNAKNTVYLQMNSLKPEDTAVYYCASRDFWWSRRIFGYWGQGTHVTVSS | high polyreactivity
12 | QVQLVESGGGLVQAGGSLRLSCAASGSTLRYYAMGWYRQAPGKERELVARIRSNGGSTYYADSVKGRFTISRDNAKNTVYLQMNSLKPEDSAVYYCAARTYRGQYYTGFGFGYWGQGTQVTVSS | high polyreactivity
13 | QVQLVESGGGLVQAGGSLRLSCAASGSTLSAYVMGWYRQAPGKERELVAAISQSADSTYYADSVKGRFTILRDNAKNTVYLQMNSLKPEDTAVYYCAAEYPYIYRFDYWGQGTQVTVSS | low polyreactivity
14 | QVQLVESGGGLVQAGGSLRLSCAASGSTLSDNAMGWYRQAPGKERELVARISGDGSTNYADSVKGRFTISRDNAKNTVYLQMNSLKPDDTAVYYCNAGTAGIYYYGKSDYWGQGTQVTVSS | low polyreactivity
15 | QVQLVESGGGLVQAGGSLRLSCAASGSTLSENVMGWYRQAPGKERELVATISYSGDSTYYADSVKGRFTISRDNAKNTVYLQMNSLIPEDTAVYYCNADHFVTVGQFDWYDSWGQGTQVTVSS | low polyreactivity
16 | QVQLVESGGGLVQAGGSLRLSCAASGSTLSKYGMGRYRQAPGKERELVAAISYSSGSTYYADSVKGRFTISRDNAKNSVYLQMNSLKPEDTAVYYGAADRFRRLHYWTYDYWGQGTQVTVSS | high polyreactivity
17 | QVQLVESGGGLVQAGGSLRLSCAASGSTLSRYAMGWYRQAPGKERELVAAISRRGGSTFYADSVKGRFTISRDNAKNTVYLQRNSLKPEDTAVYYCAALSNHGYYIRMDYWGQGTQVTVSS | high polyreactivity
18 | QVQLVESGGGLVQAGGSLRLSCAASGSTLSRYAMGWYRQAPGKERELVAAISWSGGRTYYADSVKGRFTISRDYAKNTVYLQMNSLKPEDTAVYYCAARYGYRTPDGDYWGQGTQVTVSS | high polyreactivity
19 | QVQLVESGGGLVQAGGSLRLSCAASGSTLTFNAMGWYIQAPGKERELVAAISWSDTDTYYADSVKGRFTISRDNAKNTVYLQMNSLKPEDTAVYYCAATLSAYEMDYWGQATQVTVSS | low polyreactivity
20 | QVQLVESGGGLVQAGGSLRLSCAASGSTLTFNAMGWYRQAPWKERELVAAISWSDTDTYYADSVKGRFTISRDNAKNTVYLQMNSLKPEDTAVYYCAATLSAYEMDYWGQATQVTVSS | low polyreactivity
21 | QVQLVESGGGLVQAGGSLRLSCAASGSTLTRNDMGWYRQAPGKERELVAAITFSGSDTYYADSVKGRFTISRDNANNTVYLQMNSLKPEDTAVYYCAAEYGGYEYDQWGQGTQVTVSS | low polyreactivity
22 | QVQLVESGGGLVQAGGSLRLSCAASGSTLTVNVMGWYRHAPGKEREFVAAINDSGSTYYADSVKGRFTISRDNAKNTVYLQMNSLKPEDTAVYYCATYYWVGLSLYDYWGQGTQVTVSS | low polyreactivity

Row | Sequence | polyreactivity (PSR sort gate)
23 | QVQLVESGGGLVQAGGSLRLSCAASGSTLVAYAMGWYRQAPGKERELVAAISRSGGNTYYADSVKGRFTISRDNAKNTVYFQMISLKPEDTAVYYCAAVRLYRYDYWGQCTQVTVSS | low polyreactivity
24 | QVQLVESGGGLVQAGGSLRLSCAASGSTLVDYAMGWYRQAPGKERQLVAAITSGGSTNYADSVMGRFTISRDNAKKTVYLQMNSLKPEDTAVYYCAAEWQRGLQAEYYYWGQGTKVTVSS | low polyreactivity
25 | QVQLVESGGGLVQAGGSLRLSCAASGSTLVGNAMGWYRQAPGKEMELVAVISYRGGSTYYADSVKGRFTISRDNAKNTVYLQMNSLKPEDTAVYDCAARYYRNPVFVIMDYWGQGTQVTVSS | high polyreactivity
26 | QVQLVESGGGLVQAGGSLRLSCAASGSTLVGNAMGWYRQAPGKERELVAAISSSGTSTYYADSVKGRFTISRDNAKNTVYLQMNSLKPEDTAVYYCAAYVYGVGMDYWGQGTQVTVSS | high polyreactivity
27 | QVQLVESGGGLVQAGGSLRLSCAASGSTLVGNTMGCYRQSPGKERELVAAITGVGSTNYADSVKGRFTISRDNAKNTVYLQMNSLKPEDTAVYYCAAQYSYTYIVSYLYDMDYWGQGTQVTVSS | low polyreactivity
28 | QVQLVESGGGLVQAGGSLRLSCAASGSTLVRYAMGWYRQAPGKERELVAAISGSGGSTFYADSVKGRFTISRDNAKNSVYLQMNSLKPEDTAVYYCAARYYWYGRAGNKHASYYYWGQGTQVTVSS | high polyreactivity
29 | QVQLVESGGGLVQAGGSLRLSCAASGSTLVVNGMGWYRQAPGKERELVASISSDGSTNYADSVKGRFTISRDNAKNTVYLQMNSLKPEDTAVYYCASDEGTGQASLSSNLYDYWGQGTQVTVSS | low polyreactivity
30 | QVQLVESGGGLVQAGGSLRLSCAASGSTLVVYAMGRYRQAPGIERELVAAISSIGGRPYYADSVKGRFTISRDNAKYTVYLQMNSLKPEDTAVYYCTALRYVVYFDDDYWGQGTQVTVSS | high polyreactivity
31 | QVQLVESGGGLVQAGGSLRLSCAASGSTLYANAMGWYRQAPGKEMALVAAITRTGGNTYYADSVKGRFTISRDNAKNTVYFQMNSLKPEDTAVYYCAARNPPTDHTGYQSSVLPGRYYWGQGTQVTVSS | low polyreactivity
32 | QVQLVESGGGLVQAGGSLRLSCAASGSTLYGYAMGWYRQAPGKERELVAAISVSGGRTYYADSVKGRFTISRDNAKNTVYLQMNSLKPEDTAVYYCAAYGTTRMDYWGQGTQVTVSS | high polyreactivity
33 | QVQLVESGGGLVQAGGSLRLSCAASGSTLYKYAMGWYRQAPGKEREFVAAISWSGSSTYYADSVKGRFTISRDNAKNTVYLQMNSLKPEDTAVYYCAALYTHYYWIEYDYWGQGTQVTVSS | low polyreactivity
34 | QVQLVESGGGLVQAGGSLRLSCAASGSTLYRYAMGWYRQAPGKERELVAAISSAGSTHYADSVKGRFTISRDNAKNTVYLQMNSLKTEDTAVYYCADKRYLKYGYWGQGTQVTVSS | high polyreactivity
35 | QVQLVESGGGLVQAGGSLRLSCAASGSTLYRYAMGWYRQAPGKERELVATIRWSGGSTYYADSVKGRFTISRDNAKNTVYLQMNSLKPEDTAVYYCAKRSSYGSSGRYYYWGQGTQVTVSS | high polyreactivity
36 | QVQLVESGGGLVQAGGSLRLSCAASGSTLYSYVMGWYRQAPGKERELVAAIRSSGGSTYYADSVKGRFTISRDNAKNTVYLQMNSLKPEDTAVYYCAKEWKVDVASKFLYHYYYWGQGTQVTVSS | high polyreactivity
37 | QVQLVESGGGLVQAGGSLRLSCAASGSTLYWNAMGWYRQAPGKERELVASITSSGGSTYYADSVKGRFTISRDNAKNTVYLQMNSLKPEDTAVYYCATESWWRYSEYYYWGQGTQVTVSS | low polyreactivity
38 | QVQLVESGGGLVQAGGSLRLSCAASGSTLYWYAMGWYRQAPGKERELVAGISIGGRTNYADSVKGRFTISRDNAKNTVYLQMNSLKPEDTAVYYCNAENTYLGSRYRPYNYWGQGTQVTVSS | low polyreactivity
39 | QVQLVESGGGLVQAGGSLRLSCAASGSTQYKYAMGWNRQAPGKERELVAAISWSGSSTYYADSVKGRFTISRDNAKNTVYLQLNSLKREDTAVYYCAAYPRPYIGYTDGYVWYEFDYWGQGTQVTVSS | low polyreactivity
40 | QVQLVESGGGLVQAGGSLRLSCAASGSTQYPYAMGWYRQAPGKERELDAAISWSGGSTYYADSVKGRFTISRDPAQNTVYLQMNSLNPEDTAVYYCAAVYHFQYGAYDYWGQGTQVTVSS | high polyreactivity
41 | QVQLVESGGGLVQAGGSLRLSCAASGSTQYSYAMGWYRQAPGKERELVAAINSGSNTYYADSVKGRFTISRDNAKNTVYLQMNSLKPEDTAVYYCAAKGIIYTGYDGARRAYGYWGQGTQVTVSS | high polyreactivity
42 | QVQLVESGGGLVQAGGSLRLSCAASGSTRIYDMGCYRQAPAKERELVAAISSTGSTYYADSVKGRFTISRDNAKNTVYLQMNSLKPEDTAVYYCAAARYYRYDRYYSWGQGTQVTVTS | high polyreactivity
43 | QVQLVESGGGLVQAGGSLRLSCAASGSTRRYVMGWYRQAPGKERELVAVISRGGSTYYADSVKGRFTISRDNAKNTVNLQMNSLKPEDTAVYYCNVQPVIPRGGDYWGQGTQVTVSS | high polyreactivity
